The source of these data is paper PMC6697736, “A novel thermostable D-amino acid oxidase of the thermophilic fungus Rasamsonia emersonii strain YA” (Scientific Reports, 2019).

Series [1] has as its target T1, ReDAAO (Rasamsonia emersonii, UniProt A0A499UB99).
T1 construct: gene DAO1; full-length, 368 aa, codon-optimised synthetic ORF in pET15b, His-tagged, E. coli BL21(DE3) pLysS; 42 kDa subunit, 185 kDa tetramer; noncovalent FAD
Description: DNPH assay, […] D-Val as substrate. Type of series: biochemical. The conditions noted are these: read-out: % inhibition at 50 mM.

Series [2] addresses T1, ReDAAO. Description: absorption spectrum; TLC of flavin released by heat denaturation. Type of series: binding. The conditions noted are these: noncovalent; co-purified from E. coli; pH 8.0.
Substrate in series [3]: C[C@@H](N)C(=O)O
Briefly: purified protein. The conditions noted are these: apparent, 55 °C, 50 mM KPi pH 8.0, 0.02 mM FAD, O2 co-substrate.

Substrate in series [4]: CC(C)[C@@H](N)C(=O)O
Description: purified protein. The conditions noted are these: apparent, 55 °C, 50 mM KPi pH 8.0, 0.02 mM FAD, O2 co-substrate. Type of series: biochemical, Rasamsonia emersonii.

Substrate in series [5]: CSCC[C@@H](N)C(=O)O
Briefly: purified protein. It counts as biochemical, Rasamsonia emersonii. The conditions noted are these: apparent, 55 °C, 50 mM KPi pH 8.0, 0.02 mM FAD, O2 co-substrate.

Substrate in series [6]: N=C(N)NCCC[C@@H](N)C(=O)O
Description: purified protein. It counts as biochemical, Rasamsonia emersonii. The settings on record: apparent, 55 °C, 50 mM KPi pH 8.0, 0.02 mM FAD, O2 co-substrate.

Substrate in series [7]: N[C@H](CCC(=O)O)C(=O)O
Description: purified protein. The conditions noted are these: apparent, 55 °C, 50 mM KPi pH 8.0, 0.02 mM FAD, O2 co-substrate. Type of series: biochemical, Rasamsonia emersonii.

`O=C(O)c1ccccc1` [benzoate]: on ReDAAO [1], the inhibition at 50000 µM came to 13.2%.

On to `C/C=C/C(=O)O` [crotonate], for which the inhibition at 50000 µM at ReDAAO [1] was 22.6%.

In the case of `O=C(O)C[C@@H](O)C(=O)O` [D-malate], the inhibition at 50000 µM at ReDAAO [1] worked out at 17.2%.

`Cc1cc2nc3c(=O)[nH]c(=O)nc-3n(C[C@H](O)[C@H](O)[C@H](O)COP(=O)(O)OP(=O)(O)OC[C@H]3O[C@@H](n4cnc5c(N)ncnc54)[C@H](O)[C@@H]3O)c2cc1C` [FAD]: at ReDAAO [2], the “absorption spectrum; TLC of flavin released by heat denaturation” value is given as “ReDAAO contains noncovalently bound FAD that functions as a cofactor”.

B1: ReDAAO (Rasamsonia emersonii) (protein)
chain: MATNNIVVLGAGVSGLTTAWLLSKDPSNKITVAAKHMPGDYDIEYCSPWAGANYLPVGAENSRVGQWERATWPHLRDIAQNHPEAGIHFQDTVVYNRTKDQGSTTGQWFSELVKPNPWYGKVLPNFRELSKDELPPGIDNANRFTSVCINTAVYLPWLVGQCRKNGVVFKRAVFKHVAEAANAHHSGQKADLVVNCTGLSSRKLGGVQDNTLLPARGQIVVVRNDPGLMCSISGTDDGDDEVTYMMTRAAGGGTILGGTYQKHNWDSLPDPNLAVRIMKRCIELCPSLVAPGQGIEGLDIIRHGVGLRPVREDGPRIEKELIDGVWVVHNYGHGGYGYQTSFGCATTAVEVVREALQQQKQRRDKARL
notes: full-length, 368 aa, codon-optimised synthetic ORF in pET15b, His-tagged, E. coli BL21(DE3) pLysS; 42 kDa subunit, 185 kDa tetramer; noncovalent FAD
Turning to B1, the Michaelis-Menten constant (Km) in the series “purified protein [3]” came to 2700 ± 300 µM; in “purified protein [4]”, 628 ± 40 µM; in “purified protein [5]” it was 213 ± 30 µM; in “purified protein [6]”, 19200 ± 4300 µM; in the series “purified protein [7]”, 12100 ± 2900 µM. Further, the kcat is 189 s⁻¹ in “purified protein [3]”; 225 ± 2.4 s⁻¹ in the series “purified protein [4]”; 120 ± 3.1 s⁻¹ in “purified protein [5]”; 45.6 ± 4.5 s⁻¹ in the series “purified protein [6]”; 90.7 ± 6.6 s⁻¹ in “purified protein [7]”. In addition, the specificity constant (kcat/Km) in “purified protein [3]” stood at 69900 M⁻¹ s⁻¹; in “purified protein [4]”, 358000 M⁻¹ s⁻¹; in “purified protein [5]”, 562000 M⁻¹ s⁻¹; in “purified protein [6]”, 2380 M⁻¹ s⁻¹; in the series “purified protein [7]” it was 7490 M⁻¹ s⁻¹.
